± gives the uncertainty stated by the source.
Assay: protein stability index of a GFP-peptide fusion (yeast GPS) (PSI 1-4); higher = more stable; sorted into four equal gates, so the index is relative within each strain
Outline: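 Tiled 17-residue peptides from yeast proteins were fused downstream of GFP on a plasmid that also expresses Cherry, and the pooled library was carried in yeast. Mid-log cultures grown in leucine-free medium were sorted into four equal gates by GFP/Cherry fluorescence ratio. Plasmids from each gate were PCR-amplified and Illumina-sequenced, and reads were assigned to strains by barcodes. Each peptide's protein stability index is the sum, over gates, of the gate's read frequency multiplied by its gate number.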

PSQFGMLCTADTPEGEA [RET1]
protein stability index (pdr5∆): 1.7 ± 0.23 | protein stability index (san1∆): 2.58 ± 0.22

TKESQPTIEEDLTRVYK [FAS2]
protein stability index (doa10∆): 3.46 ± 0.12 | protein stability index (pdr5∆): 3.32 ± 0.094 | protein stability index (san1∆): 3.2 ± 0.07 | protein stability index (ubr1∆): 3.48 ± 0.091

SPIFEVLSDDAKKLSSF [ARP9]
protein stability index (doa10∆): 2.84 ± 0.062 | protein stability index (pdr5∆): 3.19 ± 0.11 | protein stability index (san1∆): 2.88 ± 0.058 | protein stability index (ubr1∆): 3 ± 0.069

IPNIPPNINTWQQVTAL [GAL11]
protein stability index (doa10∆): 2.96 ± 0.14 | protein stability index (pdr5∆): 3.15 ± 0.1 | protein stability index (san1∆): 2.9 ± 0.11 | protein stability index (ubr1∆): 2.54 ± 0.12

TLAEVKAAGLTAAYART [RPL13A]
protein stability index (doa10∆): 1.38 ± 0.11 | protein stability index (pdr5∆): 1.89 ± 0.097 | protein stability index (san1∆): 1.5 ± 0.12 | protein stability index (ubr1∆): 1.54 ± 0.061

LEGEEIKSEEKKGKSSD [RPN1]
protein stability index (doa10∆): 2.19 ± 0.077 | protein stability index (pdr5∆): 2.17 ± 0.07 | protein stability index (san1∆): 3.05 ± 0.084 | protein stability index (ubr1∆): 2.4 ± 0.043

TVLFFIGVRCYEAYPNT [FAS1]
protein stability index (doa10∆): 1.21 ± 0.054 | protein stability index (pdr5∆): 1.23 ± 0.049 | protein stability index (san1∆): 1.66 ± 0.1 | protein stability index (ubr1∆): 1.8 ± 0.043

PELNVSLNLTDDVISNA [MCD1]
protein stability index (doa10∆): 3.09 ± 0.04 | protein stability index (pdr5∆): 3.21 ± 0.042 | protein stability index (san1∆): 3.1 ± 0.036 | protein stability index (ubr1∆): 3.15 ± 0.032

EGWPKFQDTLYKKIPLL [QCR10]
protein stability index (doa10∆): 2.8 ± 0.087 | protein stability index (pdr5∆): 1.63 ± 0.079 | protein stability index (san1∆): 1.85 ± 0.098 | protein stability index (ubr1∆): 1.43 ± 0.069

ILSLEQSSRVVSLSQLL [YCS4]
protein stability index (doa10∆): 1.84 ± 0.072 | protein stability index (pdr5∆): 1.5 ± 0.05 | protein stability index (san1∆): 2.12 ± 0.098 | protein stability index (ubr1∆): 1.85 ± 0.063

MVLFNIYDDWLDRISSY [PRP8]
protein stability index (doa10∆): 2.26 ± 0.054 | protein stability index (pdr5∆): 2.47 ± 0.046 | protein stability index (san1∆): 2.19 ± 0.075 | protein stability index (ubr1∆): 2.26 ± 0.045

LYQLVDIRDSSCQGNVI [YMR129W/POM152]
protein stability index (doa10∆): 3.02 ± 0.1 | protein stability index (pdr5∆): 3.12 ± 0.089 | protein stability index (san1∆): 2.86 ± 0.058 | protein stability index (ubr1∆): 2.96 ± 0.048

LSTSAFMEIVLEYNVAL [YML031W/NDC1]
protein stability index (doa10∆): 1.98 ± 0.037 | protein stability index (pdr5∆): 1.71 ± 0.052 | protein stability index (san1∆): 1.78 ± 0.08 | protein stability index (ubr1∆): 2.12 ± 0.067

LSSMRFKPSQEPEFHAL [RRI1]
protein stability index (doa10∆): 2.58 ± 0.053 | protein stability index (pdr5∆): 2.75 ± 0.05 | protein stability index (san1∆): 2.75 ± 0.075 | protein stability index (ubr1∆): 2.42 ± 0.04

IIEKITDQILQLLKEDS [RRP45]
protein stability index (doa10∆): 2.35 ± 0.11 | protein stability index (pdr5∆): 2.5 ± 0.11 | protein stability index (san1∆): 2.26 ± 0.14 | protein stability index (ubr1∆): 2.37 ± 0.13

EISRLKTSLSIKVENLN [SMC2]
protein stability index (doa10∆): 2.76 ± 0.077 | protein stability index (pdr5∆): 2.55 ± 0.13 | protein stability index (san1∆): 2.39 ± 0.17 | protein stability index (ubr1∆): 2.56 ± 0.064

MGVIKKKRSHHGKASRQ [SNF6]
protein stability index (doa10∆): 3.15 ± 0.14 | protein stability index (pdr5∆): 3.15 ± 0.12

GSGAANENPYNNGVSNL [COR1]
protein stability index (doa10∆): 3.02 ± 0.17 | protein stability index (pdr5∆): 2.94 ± 0.14 | protein stability index (san1∆): 3.15 ± 0.11 | protein stability index (ubr1∆): 2.79 ± 0.17

FGQKGGQAIVVHPDYLY [FAS2]
protein stability index (doa10∆): 1.86 ± 0.046 | protein stability index (pdr5∆): 1.62 ± 0.04 | protein stability index (san1∆): 1.99 ± 0.06 | protein stability index (ubr1∆): 1.68 ± 0.049

ESHIDSRNNTLNVTPSK [SIR4]
protein stability index (doa10∆): 2.77 ± 0.045 | protein stability index (pdr5∆): 2.62 ± 0.038 | protein stability index (san1∆): 2.75 ± 0.046 | protein stability index (ubr1∆): 2.63 ± 0.033

IQPKITELKKKLDDLEN [SMC1]
protein stability index (doa10∆): 3.11 ± 0.13 | protein stability index (pdr5∆): 2.79 ± 0.13 | protein stability index (san1∆): 3.11 ± 0.14 | protein stability index (ubr1∆): 2.71 ± 0.14

KRQELEEASQQQQLQQN [MED2]
protein stability index (doa10∆): 2.75 ± 0.056 | protein stability index (pdr5∆): 2.65 ± 0.083 | protein stability index (san1∆): 2.48 ± 0.059 | protein stability index (ubr1∆): 2.63 ± 0.061

LLRALKTNEESAKMILL [PRP8]
protein stability index (doa10∆): 3.05 ± 0.099 | protein stability index (pdr5∆): 2.98 ± 0.1 | protein stability index (san1∆): 2.86 ± 0.071 | protein stability index (ubr1∆): 2.92 ± 0.037

YLMDSKNVRTRIKLATT [RRI1]
protein stability index (doa10∆): 2.09 ± 0.08 | protein stability index (pdr5∆): 2.07 ± 0.073 | protein stability index (san1∆): 1.61 ± 0.099 | protein stability index (ubr1∆): 1.99 ± 0.061

DFNQAFEGTDDNEEASV [BRN1]
protein stability index (doa10∆): 3.09 ± 0.14 | protein stability index (pdr5∆): 3.17 ± 0.13 | protein stability index (san1∆): 3.39 ± 0.15 | protein stability index (ubr1∆): 3.53 ± 0.12

VTAKLLGFTPGELRSYL [FAS1]
protein stability index (doa10∆): 2.91 ± 0.073 | protein stability index (pdr5∆): 2.97 ± 0.11 | protein stability index (san1∆): 2.89 ± 0.1 | protein stability index (ubr1∆): 3.1 ± 0.093

YTRYLDRIYMLFHFEED [PRP8]
protein stability index (doa10∆): 1.68 ± 0.059 | protein stability index (pdr5∆): 1.4 ± 0.051 | protein stability index (san1∆): 1.5 ± 0.12 | protein stability index (ubr1∆): 1.61 ± 0.043

FQVHERLAPLIKEENDM [ARP7]
protein stability index (pdr5∆): 3.58 ± 0.17 | protein stability index (san1∆): 2.97 ± 0.15 | protein stability index (ubr1∆): 3.22 ± 0.28

GLLDLERVIVVTGFAEV [FAS2]
protein stability index (doa10∆): 2.9 ± 0.17 | protein stability index (pdr5∆): 2.32 ± 0.095 | protein stability index (san1∆): 2.21 ± 0.17 | protein stability index (ubr1∆): 2.16 ± 0.11

PKSTLDNWRREFLKWTP [ISW2]
protein stability index (pdr5∆): 3.15 ± 0.15 | protein stability index (ubr1∆): 2.76 ± 0.09

SVVAKQLLNGQKIVVVR [RPL16A]
protein stability index (doa10∆): 1.25 ± 0.049 | protein stability index (pdr5∆): 1.36 ± 0.053 | protein stability index (san1∆): 1.62 ± 0.11 | protein stability index (ubr1∆): 1.24 ± 0.057

ANVIKALAFCEIGITQQ [RRP4]
protein stability index (doa10∆): 1.36 ± 0.07 | protein stability index (pdr5∆): 2 ± 0.079 | protein stability index (san1∆): 1.76 ± 0.16 | protein stability index (ubr1∆): 2.26 ± 0.075

VLMERKDERGEGEAKQK [ITC1]
protein stability index (doa10∆): 2.94 ± 0.21 | protein stability index (pdr5∆): 3.35 ± 0.24 | protein stability index (ubr1∆): 3.07 ± 0.22

VIYRNSLYKVSFLEKPK [YMR129W/POM152]
protein stability index (doa10∆): 2.49 ± 0.065 | protein stability index (pdr5∆): 2.61 ± 0.081 | protein stability index (san1∆): 2.42 ± 0.073 | protein stability index (ubr1∆): 2.43 ± 0.12

VGPHFKQANNFLWPFKL [RPL7A]
protein stability index (doa10∆): 2.71 ± 0.069 | protein stability index (pdr5∆): 3.05 ± 0.098 | protein stability index (san1∆): 2.97 ± 0.065 | protein stability index (ubr1∆): 2.93 ± 0.064

SLYPPPPPYVKFFTQSN [MED7]
protein stability index (doa10∆): 1.97 ± 0.043 | protein stability index (pdr5∆): 2.17 ± 0.048 | protein stability index (san1∆): 2.16 ± 0.072 | protein stability index (ubr1∆): 2.35 ± 0.031

CYLRWQHLRNEHGMNAP [SNF2]
protein stability index (doa10∆): 3.15 ± 0.072 | protein stability index (pdr5∆): 3.33 ± 0.1 | protein stability index (san1∆): 3.4 ± 0.087 | protein stability index (ubr1∆): 2.9 ± 0.066

RQPSLHRLSILSHYAKI [RPO31]
protein stability index (doa10∆): 1.74 ± 0.077 | protein stability index (pdr5∆): 2.1 ± 0.071 | protein stability index (san1∆): 1.36 ± 0.12 | protein stability index (ubr1∆): 2.13 ± 0.063

GTLLREDDNTPAGHAGN [YDL088C/ASM4]
protein stability index (doa10∆): 3.03 ± 0.084 | protein stability index (pdr5∆): 2.79 ± 0.086 | protein stability index (san1∆): 3.09 ± 0.054 | protein stability index (ubr1∆): 3 ± 0.045

HDEKLSDELHNQSTIYE [LIN1]
protein stability index (doa10∆): 2.91 ± 0.11 | protein stability index (pdr5∆): 2.74 ± 0.12 | protein stability index (san1∆): 2.73 ± 0.16 | protein stability index (ubr1∆): 2.77 ± 0.097
